Data on two substances can be found in PMC3623829.

Assay [1] addresses HIV-1 CA (capsid protein) M68C/E212C (HIV-1). Nature of the assay: cross-linking; spontaneous disulfide crosslinking of engineered cysteines in virions; viruses pelleted through 20% sucrose (100,000 x g, 30 min), dissolved in SDS sample buffer without beta-mercaptoethanol, 95°C 5 min, SDS-PAGE, immunoblot with rabbit polyclonal anti-CA antibody. Background: A western blot detects proteins with antibodies after separation by electrophoresis.

Assay [2] has as its target HIV-1 CA (capsid protein) Q63C/Y169C (HIV-1). The description is as above.

One may read the stoichiometry N as the number of molecules, sites or subunits per partner or assembly. Substance “HIV-1 CA (capsid protein) M68C/E212C (natural protein)” yielded a stoichiometry N in assay [1] of 6.

As to “HIV-1 CA (capsid protein) Q63C/Y169C (natural protein)”, the stoichiometry N in assay [2] came to 6.
